This is an account of results in patent publication US20030152571A1 (GlaxoSmithKline, published 2003).

Assay [1] deals with T1, human αvβ3 receptor on cells or in tissue (human, UniProt P06756 31-1048; P05106 27-788). The assay is described as follows: cell-based or functional assay.
Assay [2] concerns the target rabbit αvβ3 receptor on rabbit smooth muscle cells (rabbit, UniProt A0A5F9DQF7 1-123). The assay is described as follows: cell-based or functional assay.
Assay [3] has as its target T2, human vitronectin receptor αvβ3 purified from human placenta (human, UniProt P06756 31-1048; P05106 27-788).
T2 construct: mature; Detergent-solubilised native heterodimer; also called αvβ3 receptor; human αvβ3 protein receptor
The assay is described as follows: BIAcore; immobilized αvβ3, mAb in solution.
Procedure: (§1) The αᵥβ₃ was immobilized by inserting the αᵥβ₃ into a phospholipid vesicle and producing a hybrid bilayer membrane on a hydrophobic sensor surface. […] Samples of the mAbs were passed over this surface and the rates at which they bound and then dissociated from the surface were measured and analyzed using software provided with the instrument.

For assay [4], the target named is T2, human vitronectin receptor αvβ3 …. The assay is described as follows: not stated ('depending on the assay employed').
Assay [5] has the same target. In words: BIAcore, αvβ3 immobilized in a hybrid bilayer membrane on the sensor surface, mAb in solution.
Procedure: as §1
The target of assay [6] is T1, human αvβ3 receptor on cells or in …. In words: method not stated; reference is the rabbit αvβ3 receptor.
Assay [7] deals with T2, human vitronectin receptor αvβ3 …. The assay is described as follows: BIAcore; αvβ3 in a hybrid bilayer membrane on the sensor, mAb at 100, 25, 6 nM in triplicate; αvβ3 immobilized in hybrid bilayer membrane on the sensor; mAb at 100, 25, 6 nM in triplicate.
Procedure: as §1

T2 sequence (P06756 31-1048, form in doubt, chain 1 of 2): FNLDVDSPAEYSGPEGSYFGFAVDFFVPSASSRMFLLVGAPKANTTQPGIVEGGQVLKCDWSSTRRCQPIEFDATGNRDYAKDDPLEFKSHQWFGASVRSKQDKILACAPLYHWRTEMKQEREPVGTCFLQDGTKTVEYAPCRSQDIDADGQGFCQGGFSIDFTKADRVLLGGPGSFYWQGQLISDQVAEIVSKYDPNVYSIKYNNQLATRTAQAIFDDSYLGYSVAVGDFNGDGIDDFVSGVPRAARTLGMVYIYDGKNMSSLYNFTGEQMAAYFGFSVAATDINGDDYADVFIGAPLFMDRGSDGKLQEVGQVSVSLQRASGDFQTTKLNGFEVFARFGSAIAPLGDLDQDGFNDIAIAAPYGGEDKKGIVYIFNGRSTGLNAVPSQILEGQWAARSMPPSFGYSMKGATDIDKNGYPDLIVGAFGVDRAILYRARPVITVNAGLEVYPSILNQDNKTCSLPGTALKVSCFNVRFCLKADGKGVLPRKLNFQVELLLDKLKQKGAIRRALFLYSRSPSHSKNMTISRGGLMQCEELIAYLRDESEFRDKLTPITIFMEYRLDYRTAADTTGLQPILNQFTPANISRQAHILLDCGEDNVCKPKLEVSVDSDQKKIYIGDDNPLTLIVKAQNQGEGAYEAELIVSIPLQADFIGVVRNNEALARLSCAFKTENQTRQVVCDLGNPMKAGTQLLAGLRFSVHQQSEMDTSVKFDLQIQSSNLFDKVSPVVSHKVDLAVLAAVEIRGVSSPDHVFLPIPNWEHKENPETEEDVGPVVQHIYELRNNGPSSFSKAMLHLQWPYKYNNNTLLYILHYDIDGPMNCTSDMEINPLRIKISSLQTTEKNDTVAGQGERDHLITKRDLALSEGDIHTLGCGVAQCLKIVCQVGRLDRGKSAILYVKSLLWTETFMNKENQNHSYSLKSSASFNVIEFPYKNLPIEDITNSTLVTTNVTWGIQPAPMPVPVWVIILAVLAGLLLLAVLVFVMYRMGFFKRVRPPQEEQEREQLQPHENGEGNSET
T2 sequence (P05106 27-788, form in doubt, chain 2 of 2): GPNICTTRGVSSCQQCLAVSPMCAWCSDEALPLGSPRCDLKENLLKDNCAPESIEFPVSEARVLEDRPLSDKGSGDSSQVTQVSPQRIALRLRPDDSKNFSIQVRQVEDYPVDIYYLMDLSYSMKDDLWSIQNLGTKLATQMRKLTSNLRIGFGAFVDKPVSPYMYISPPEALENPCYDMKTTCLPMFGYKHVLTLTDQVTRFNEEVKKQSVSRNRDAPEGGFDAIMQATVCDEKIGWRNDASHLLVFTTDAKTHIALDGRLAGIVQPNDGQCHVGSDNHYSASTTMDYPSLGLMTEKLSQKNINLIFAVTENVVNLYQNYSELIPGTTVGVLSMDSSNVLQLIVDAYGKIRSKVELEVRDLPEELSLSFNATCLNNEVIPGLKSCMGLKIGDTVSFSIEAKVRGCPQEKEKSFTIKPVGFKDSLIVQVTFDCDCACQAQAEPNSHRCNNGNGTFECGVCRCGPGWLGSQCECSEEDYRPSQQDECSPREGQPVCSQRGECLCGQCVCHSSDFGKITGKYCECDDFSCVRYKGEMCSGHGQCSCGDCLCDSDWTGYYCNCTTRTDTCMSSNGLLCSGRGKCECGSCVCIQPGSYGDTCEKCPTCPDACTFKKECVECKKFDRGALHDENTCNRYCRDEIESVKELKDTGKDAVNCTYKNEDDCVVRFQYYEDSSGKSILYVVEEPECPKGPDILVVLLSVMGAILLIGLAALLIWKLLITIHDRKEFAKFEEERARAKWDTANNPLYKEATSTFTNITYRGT
T1 sequence (P06756 31-1048, chain 1 of 2): as the sequence (P06756 31-1048, form in doubt, chain 1 of 2) above
T1 sequence (P05106 27-788, chain 2 of 2): as the sequence (P05106 27-788, form in doubt, chain 2 of 2) above
Sequence of rabbit αvβ3 receptor on rabbit smooth muscle cells (A0A5F9DQF7 entry or part of it): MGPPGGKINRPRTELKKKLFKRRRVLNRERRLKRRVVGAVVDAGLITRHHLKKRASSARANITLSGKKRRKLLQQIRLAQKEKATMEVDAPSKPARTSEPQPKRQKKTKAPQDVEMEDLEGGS

B1: humanized D12 antibody HZ-D12 (IgG1) (antibody, V domains shown)
VH: QVQLVQSGAEVKKPGASVKVSCKASGYAFTSYNMYWVRQAPGQGLEWIGYIDPYNGDTFYNQKFKGKATLTVDKSTSTAYMELSSLRSEDTAVYYCARQNYGSFAYWGQGTLVTVSS
VL: DIVLTQSPGTLSLSPGERATLSCRASQSISNHLHWYQQKPGQAPRLLIKYASQSISGIPSRFSGSGSGTDFTLTISRLEPEDFAVYYCQQSNSWPFTFGQGTKVEIK
notes: also called HuD12; D12HZHC 1-0 / D12HZLC 1-0
As for B1, the “IC50 (read off the curve), adhesion of αvβ3-transfected HEK293 cells to vitronectin (O.D. 600nM)” value in assay [1] is ~0.1 µg/mL. Moreover, the “IC50, rabbit SMC migration (% control)” value in assay [2] was found to be 42 µg/mL. In assay [3], this molecule came in with a dissociation constant Kd of 1 nM.

B2: humanized D12 antibody HZ-D12 (IgG4) (antibody, V domains shown)
VH: B1 VH
VL: B1 VL
Consider B2, for which the Kd in assay [3] worked out at 1.1 nM.

B3: murine monoclonal antibody D12 (antibody, V domains shown)
VH: EIQLQQSGPEVVKPGASVKVSCKASGYAFTSYNMYWVKQSHGKSLEWIGYIDPYNGDTFYNQKFKGKATLTVDKSSSTAYMHLNSLTSEDSAVFYCARQNYGSFAYWGQGTLVTVSA
VL: DIVLTQSPATLSVTPGDSVSLSCRASQSISNHLHWYQQRSHESPRLLIKYASQSISGIPSRFRGSGSGTDFTLNINILETEDFGMYFCQQSNSWPFTFGSGTNLEIKR
notes: also called mAb D12; murine D12
With B3, the Kd was 1 to 3 nM in assay [4], 0.53 nM in assay [7] and 1.3 nM in assay [3]. The same molecule displayed a koff in assay [5] of 0.00041 s⁻¹. For the same molecule, the kon in assay [5] is 770000 M⁻¹ s⁻¹. In assay [6], the “fold higher affinity against human αvβ3 than against the rabbit receptor” value amounted to 10 fold. In assay [2], the “IC50, rabbit SMC migration (% control)” value turned out to be 18 µg/mL.
